Patent publication US20110262525A1, “METHODS OF TREATMENT” (SCHERING CORPORATION, priority 2006, published 2011)
Marks after values point to notes of the source that are not given here.

Legend:
[1] = test system: ALL-2 xenograft (ALL B-precursor); experiment: PPTP in vivo leukemia xenograft ALL-2; settings: ALL-2 (ALL B-precursor) xenograft; 0.5 mg per mouse ip twice weekly for four weeks
Procedure: (§1) The PPTP includes a molecularly characterized in vitro panel of cell lines (n=27) and in vivo panel of xenografts (n=61) representing most of the common types of childhood solid tumors and childhood ALL (acute lymphoblastic leukemia). LCF/HCA anti-IGF1R antibody was tested against the PPTP in vitro panel at concentrations ranging from 0.01 nM to 100 nM; and was tested against the PPTP in vivo panel at a dose of 0.5 mg per mouse administered twice weekly for four weeks via intraperitoneal injection. […]
(§2) In vivo acute lymphoblastic leukemia testing: For each xenograft line, 8 mice were inoculated with 3-5×10^6 mononuclear cells purified from the spleens of secondary recipient mice. Engraftment was monitored weekly by flow cytometry, and treatment was initiated when the proportion of human CD45+ cells in the peripheral blood reached 1%. The proportion of human CD45+ cells in the peripheral blood was monitored weekly throughout the course of treatment. […]
(§3) Median Group Response: Each individual mouse in each treatment group was assigned a response score (see Tables above) and a median score for the treatment group was calculated and then each treatment group was assigned an overall response according to the table below. […]

[2] = test system: squamous cell carcinoma cell line SCC 15; experiment: Cell-Titer Glo proliferation assay, SCC15; format: cell-based, human; settings: 0.000256-100 nM antibody, 96 hours
Procedure: Cell proliferation was assayed using a Cell-Titer Glo assay (Promega Corp.; Madison, Wis.). A cell-titer glo assay generates a “glow” luminescent signal in the presence of ATP from viable cells, which can be detected with a plate reader luminometer or CCD imaging device.
In this assay, squamous cell carcinoma cells, SCC9, SCC25 and SCC15, were trypsinized, counted and resuspended at 25,000 cells/ml in 10% HI-FBS RPMI containing NEAA, L-Glu, MEM Vitamins and PS. […] (2500 cells) were added to each well BD Falcon 96 well black, clear bottom TC treated plate. Cells were allowed to attach and spread overnight at 37° C. Then, 10% RPMI medium was replaced with […] 2% RPMI, containing the LCF/HCA antibody at the appropriate concentration, the following day. The anti-IGF1R antibody concentrations used in each experiment were 100 nM, 20 nM, 5 nM, 0.8 nM, 0.16 nM, 0.032 nM, 0.0064 nM, 0.00128 nM, and 0.000256 nM. All treatments were prepared in 2% RPMI at 20× concentration and serial diluted. Every test point was prepared in triplicate on separate assay plates. As mentioned above, cell proliferation was measured using the CellTiter-Glo Luminescent Cell Viability Assay (Promega) at 96 hours post treatment. Luminescence was detected on a Wallac 420 Plate Reader with stacker.

[3] = test system: ALL-16 xenograft (ALL T-cell); experiment: PPTP in vivo leukemia xenograft ALL-16; settings: ALL-16 (ALL T-cell) xenograft; 0.5 mg per mouse ip twice weekly for four weeks
Procedure: as §1, §2, §3

[4] = test system: OS-1 xenograft (Osteosarcoma); experiment: PPTP in vivo xenograft OS-1; design: key to EFS activity notation (high, intermediate, indeterminate): high (!); intermediate (#); indeterminate (^); settings: OS-1 (Osteosarcoma) xenograft, 0.5 mg per mouse ip twice weekly for four weeks
Procedure: (§4) The PPTP includes a molecularly characterized in vitro panel of cell lines (n=27) and in vivo panel of xenografts (n=61) representing most of the common types of childhood solid tumors and childhood ALL (acute lymphoblastic leukemia). LCF/HCA anti-IGF1R antibody was tested against the PPTP in vitro panel at concentrations ranging from 0.01 nM to 100 nM; and was tested against the PPTP in vivo panel at a dose of 0.5 mg per mouse administered twice weekly for four weeks via intraperitoneal injection. Three measures of antitumor activity were used: 1) response criteria modeled after the clinical setting; 2) treated-to-control (T/C) tumor volume at day 21; and 3) a time to event (4-fold increase in tumor volume) measure based on the median EFS of treated and control lines (intermediate activity required EFS (event-free survival) T/C>2, and high activity additionally required a net reduction in median tumor volume at the end of the experiment).
(§5) Stage 1 testing involved testing an agent across the entire PPTP panel of childhood cancer xenograft lines at its maximum tolerated dose (MTD) or at a dose selected based on PK/PD (pharmacokinetic/pharmacodynamic) studies using adult preclinical models.
(§6) In vivo solid tumor testing: For each xenograft line, 10 mice bearing subcutaneous (SC) tumors initiated treatment when the tumors were between 0.2-0.5 cm^3 in volume. Two perpendicular tumor diameters were measured at once weekly intervals with digital vernier calipers. Assuming tumors to be spherical, volumes were calculated from the formula (π/6)×d3, where d represented the mean diameter.
(§7) Drug: LCF/HCA was dissolved in 20mM sodium acetate pH 5 buffer containing 150 mM sodium chloride, and administered intraperitoneally twice weekly for 4 consecutive weeks at a dose of 0.5 mg per animal. […]
as §3

[5] = test system: TC-71 xenograft (Ewings); experiment: PPTP in vivo xenograft TC-71; settings: TC-71 (Ewings) xenograft, 0.5 mg per mouse ip twice weekly for four weeks
Procedure: as §4, §5, §6, §7, §3

[6] = test system: BT-28 xenograft (Medulloblastoma); experiment: PPTP in vivo xenograft BT-28; settings: BT-28 (Medulloblastoma) xenograft, 0.5 mg per mouse ip twice weekly for four weeks
Procedure: as §4, §5, §6, §7, §3

[7] = test system: EW8 xenograft (Ewings); experiment: PPTP in vivo xenograft EW8
Procedure: as §4, §5, §6, §7, §3

[8] = test system: OS-2 xenograft (Osteosarcoma); experiment: PPTP in vivo xenograft OS-2; design: key to EFS activity notation (high, intermediate, indeterminate): high (!); intermediate (#); indeterminate (^); settings: OS-2 (Osteosarcoma) xenograft, 0.5 mg per mouse ip twice weekly for four weeks
Procedure: as §4, §5, §6
Drug: LCF/HCA was dissolved in 20mM sodium acetate pH 5 buffer containing 150 mM sodium chloride, and administered intraperitoneally twice weekly for 4 consecutive weeks at a dose of 0.5 mg per animal. The antibody was provided to each testing site in coded vials for blinded testing according the PPTP's standard operating procedures.
Median Group Response: Each individual mouse in each treatment group was assigned a response score (see Tables above) and a median score for the treatment group was calculated and then each treatment group was assigned an overall response according to the table below.
Statistical Methods: Event-free survival (EFS) distributions of each treatment group were compared to the EFS distribution of the respective control group using the exact log rank test. P-values were 2-sided & were not adjusted for multiple comparisons given the exploratory nature of this study. P-values<0.05 were considered to be significant.

[9] = test system: GBM2 xenograft (Glioblastoma); experiment: PPTP in vivo xenograft GBM2
Procedure: as §4, §5, §6, §7, §3

[10] = test system: Rh18 xenograft (EMB Rhabdomyosarcoma); experiment: PPTP in vivo xenograft Rh18
Procedure: as §4, §5, §6, §7, §3

[11] = test system: ALL-19 xenograft (ALL B-precursor); experiment: PPTP in vivo leukemia xenograft ALL-19; settings: ALL-19 (ALL B-precursor) xenograft; 0.5 mg per mouse ip twice weekly for four weeks
Procedure: as §1, §2, §3

[12] = 0.5 mg per mouse ip twice weekly for four weeks
[13] = day 21, 0.5 mg per mouse ip twice weekly for four weeks

B1: LCF/HCA: fully human anti-IGF1R antibody comprising the mature 19D12/15H12 light chain F (LCF) and mature heavy chain A (HCA) (antibody, V domains shown)
VH: EVQLVQSGGGLVHPGGSLRLSCAASGFTFSSFAMHWVRQAPGKGLEWISVIDTRGATYYADSVKGRFTISRDNAKNSLYLQMNSLRAEDMAVYYCARLGNFYYGMDVWGQGTTVTVSS
VL: EIVLTQVPDFQSVTPKEKVTITCRASQSIGSSLHWYQQKPDQSPKLLIKYASQSLSGVPSRFSGSGSGTDFTLTINSLEAEDAAAYYCHQSSRLPHTFGGGTKVEIKRT
EFS T/C [1]: 0.7 | Median Final RTV [1]: >25 | proliferation of squamous cell carcinoma cell line [2]: inhibited | EFS T/C [3]: 1 | Median Final RTV [3]: >25 | EFS T/C [4]: > 1.3 | EFS activity notation (high, intermediate, indeterminate) [4]: ^ | Tumor Volume T/C ([4]; day 21): 0.16 | EFS T/C [5]: 1.2 | Median Final RTV [5]: >4 | Tumor Volume T/C ([5]; day 21): 0.88 | EFS T/C [6]: 1.2 | Median Final RTV [6]: >4 | Tumor Volume T/C ([6]; day 21): 1.18 | EFS T/C [7, 12]: 1.5 | Median Final RTV [7, 12]: >4 | Tumor Volume T/C [7, 13]: 0.86 | EFS T/C [8]: 2.3 | EFS activity notation (high, intermediate, indeterminate) [8]: # | Median Final RTV [8]: >4# | Overall Group Response [8]: PD2 (1 < MS ≦ 3) | Tumor Volume T/C ([8]; day 21): 0.5 | EFS T/C [9, 12]: 1.4 | Median Final RTV [9, 12]: >4 | Tumor Volume T/C [9, 13]: 0.73 | EFS T/C [10, 12]: 1 | Median Final RTV [10, 12]: >4 | Tumor Volume T/C [10, 13]: 0.74 | EFS T/C [11]: 1.5 | Median Final RTV [11]: >25
